Measurements published in US20140259226.

T1: PYR1^CA3 (H60P, V83F, F159V), 6xHis fusion
T1 chain: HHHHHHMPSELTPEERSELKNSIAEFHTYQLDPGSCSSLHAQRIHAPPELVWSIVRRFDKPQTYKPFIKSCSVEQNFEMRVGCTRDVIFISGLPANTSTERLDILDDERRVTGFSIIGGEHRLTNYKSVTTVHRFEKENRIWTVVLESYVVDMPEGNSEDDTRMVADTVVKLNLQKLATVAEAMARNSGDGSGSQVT

T2: PYR1^CA4 (H60P, V83F, F159V, M158I), 6xHis fusion
T2 chain: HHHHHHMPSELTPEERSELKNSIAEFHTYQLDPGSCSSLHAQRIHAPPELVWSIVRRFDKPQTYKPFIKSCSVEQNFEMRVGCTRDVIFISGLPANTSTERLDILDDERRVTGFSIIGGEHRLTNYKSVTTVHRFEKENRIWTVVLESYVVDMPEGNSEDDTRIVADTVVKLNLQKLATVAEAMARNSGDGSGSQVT


Tests used:
[1] = molecular target: T1, PYR1^CA3 (H60P, V83F, F159V), 6xHis …
[2] = molecular target: T2, PYR1^CA4 (H60P, V83F, F159V, M158I), …

| Protein | PP2C activity, % of control, pNPP hydrolysis, in the absence of ABA [1] | PP2C activity, % of control, pNPP hydrolysis, in the absence of ABA [2] |
| --- | --- | --- |
| 6xHis-SUMO-ABI2 (protein) HHHHHHSDSEVNQEAKPEVKPEVKPETHINLKVSDGSSEIFFKIKKTTPLRRLMEAFAKRQGKEMDSLRFLYDGIRIQADQTPEDLDMEDNDIIEAHREQIGGMDEVSPAVAVPFRPFTDPHAGLRGYCNGESRVTLPESSCSGDGAMKDSSFEINTRQDSLTSSSSAMAGVDISAGDEINGSDEFDPRSMNQSEKKVLSRTESRSLFEFKCVPLYGVTSICGRRPEMEDSVSTIPRFLQVSSSSLLDGRVTNGFNPHLSAHFFGVYDGHGGSQVANYCRERMHLALTEEIVKEKPEFCDGDTWQEKWKKALFNSFMRVDSEIETVAHAPETVGSTSVVAVVFPTHIFVANCGDSRAVLCRGKTPLALSVDHKPDRDDEAARIEAAGGKVIRWNGARVFGVLAMSRSIGDRYLKPSVIPDPEVTSVRRVKEDDCLILASDGLWDVMTNEEVCDLARKRILLWHKKNAMAGEALLPAEKRGEGKDPAAMSAAEYLSKMALQKGSKDNISVVVVDLKGIRKFKSKSLN | both the triple and quadruple mutants dramatically increased basal PYR1 activity relative to wild-type PYR1 | both the triple and quadruple mutants dramatically increased basal PYR1 activity relative to wild-type PYR1 |
| 6xHis-SUMO-ABI1 (protein) HHHHHHSDSEVNQEAKPEVKPEVKPETHINLKVSDGSSEIFFKIKKTTPLRRLMEAFAKRQGKEMDSLRFLYDGIRIQADQTPEDLDMEDNDIIEAHREQIGGMEEVSPAIAGPFRPFSETQMDFTGIRLGKGYCNNQYSNQDSENGDLMVSLPETSSCSVSGSHGSESRKVLISRINSPNLNMKESAAADIVVVDISAGDEINGSDITSEKKMISRTESRSLFEFKSVPLYGFTSICGRRPEMEDAVSTIPRFLQSSSGSMLDGRFDPQSAAHFFGVYDGHGGSQVANYCRERMHLALAEEIAKEKPMLCDGDTWLEKWKKALFNSFLRVDSEIESVAPETVGSTSVVAVVFPSHIFVANCGDSRAVLCRGKTALPLSVDHKPDREDEAARIEAAGGKVIQWNGARVFGVLAMSRSIGDRYLKPSIIPDPEVTAVKRVKEDDCLILASDGVWDVMTDEEACEMARKRILLWHKKNAVAGDASLLADERRKEGKDPAAMSAAEYLSKLAIQRGSKDNISVVVVDLKPRRKLKSKPLN | both the triple and quadruple mutants dramatically increased basal PYR1 activity relative to wild-type PYR1 | both the triple and quadruple mutants dramatically increased basal PYR1 activity relative to wild-type PYR1 |
